Patent publication US20240101668A1 (WUGEN, published 2024)

Tests used:
[1] = molecular target: T1, huCD33-R69-His recombinant protein (human, UniProt P20138 18-259); assay: BLI
T1 construct: extracellular domain
Protocol: (§1) Discovered scFvs were analyzed for binding to huCD33-R69-His or huCD33-G69-Fc recombinant proteins (for anti-CD33 scFvs; for CLL-1 scFvs, huCLL1-K244-Avi-Tev-His or huCLL1-Q244-Avi-Tev-His were used; for FLT3, huFLT3-T227-His or huFLT3-M227-Fc were used) using BLI on a ForteBio Octet HTX instrument. Streptavidin-coated biosensors were loaded with biotinylated anti-V5 tag monoclonal antibody for 5 min and were then quenched and blocked with 20 μM amine-PEG2-Biotin for 5 min. scFvs were captured on biosensors from scFv clone periplasmic extracts. huCD33 (or huCLL-1, or huFLT3) proteins were then associated with the captured scFvs for 2 minutes, followed by dissociation with buffer (1×HBST [10 mM HEPES pH 7.4, 150 mM NaCl, 0.05% Tween-20], 1 g/L BSA) for 5 minutes. […] Data was fitted with 1:1 Langmuir equation and off-rate values were reported.

[2] = molecular target: T2, huCD33-G69-Fc recombinant protein (human, UniProt P20138 18-259); assay: BLI
T2 construct: extracellular domain; also called CD33 R69G
Protocol: as §1

[3] = molecular target: T3, huCD33-G69 stably expressed on Jurkat cells (human, UniProt P20138 18-364); assay: FACS on cells;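 further: fixed Jurkat cells bearing either CD33 variant, barcoded by dye, exposed to myc-tagged scFv periplasmic extracts, detected with anti-myc PE antibody and read by flow cytometry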
T3 construct: whole, on cells; >200,000 receptors per cell; also called CD33 Mutant; CD33 R69G
T3 sequence (P20138 18-364 R69G): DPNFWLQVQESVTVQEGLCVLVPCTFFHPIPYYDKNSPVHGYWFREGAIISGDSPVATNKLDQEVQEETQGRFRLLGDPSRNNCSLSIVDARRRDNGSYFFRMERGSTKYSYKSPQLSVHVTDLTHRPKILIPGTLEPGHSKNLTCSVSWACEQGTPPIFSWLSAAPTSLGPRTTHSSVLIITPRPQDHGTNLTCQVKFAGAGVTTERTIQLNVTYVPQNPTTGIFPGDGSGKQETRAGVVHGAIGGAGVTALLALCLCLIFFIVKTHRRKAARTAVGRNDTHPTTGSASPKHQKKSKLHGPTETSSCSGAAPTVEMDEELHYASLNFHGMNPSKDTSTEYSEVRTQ
Protocol: (§2) Jurkat cells were engineered to stably express either the huCD33-R69 or huCD33-G69 variant at >200,000 receptors per cell. Parental, huCD33-R69, and huCD33-G69 Jurkat cell lines were stained with differing levels of CellTrace Violet Cell Proliferation Kit (ThermoFisher, cat. #C34557) to barcode each cell line. Barcoded Jurkat cell lines were fixed with paraformaldehyde and incubated with myc-labeled scFv periplasmic extracts and a secondary anti-myc PE-conjugated monoclonal antibody. Appropriate positive and negative controls were used. Stained cells were analyzed by flow cytometry (CytoFLEX, Beckman Coulter, Inc.) and binding was assessed by change in PE mean fluorescence intensity (MFI) of the barcoded cell populations.

[4] = molecular target: T4, huCD33-R69 stably expressed on Jurkat cells (human, UniProt P20138 18-364); assay: FACS on cells;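 further: fixed Jurkat cells bearing either CD33 variant, barcoded by dye, exposed to myc-tagged scFv periplasmic extracts, detected with anti-myc PE antibody and read by flow cytometry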
T4 construct: whole, on cells; >200,000 receptors per cell; also called CD33 WT; CD33^ARG69
T4 sequence (P20138 18-364): as the sequence (P20138 18-364 R69G) above, with G52R counted along it
Protocol: as §2
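Wherever result is given: scFvs from periplasmic extracts captured on biosensors via anti-V5 antibody, exposed to recombinant huCD33 variants for 2 min, 5 min dissociation, scored as binding, no binding or ambiguous.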

T2 sequence (P20138 18-259 R69G): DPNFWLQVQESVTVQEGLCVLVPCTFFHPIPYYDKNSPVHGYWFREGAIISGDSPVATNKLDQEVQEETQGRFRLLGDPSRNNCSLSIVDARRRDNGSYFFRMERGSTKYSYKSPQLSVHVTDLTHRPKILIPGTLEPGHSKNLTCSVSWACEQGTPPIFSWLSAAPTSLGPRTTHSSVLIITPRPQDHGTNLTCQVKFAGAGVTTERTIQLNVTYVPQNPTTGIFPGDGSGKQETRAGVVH
T1 sequence (P20138 18-259): as the sequence (P20138 18-259 R69G) above, with G52R counted along it

| binding result [1] | binding result [2] | geometric mean MFI fold change over Jurkat parental [3] | geometric mean MFI fold change over Jurkat parental [4] | Binder |
| --- | --- | --- | --- | --- |
| no binding | binds | 2 to 10 fold | < 2 fold | Polypeptide No. 36 (scFv, V domains shown, scFv) VH: QVQLVQSGAEVKKPGASVKVSCKASGGTFSSYAISWVRQAPGQGLEWLGIISPSGRSAGYGRKFQGRVTMTRDTSTSTVYMELSSLRSEDTAVYYCARTDYGGHKWYFDLWGRGTLVTVSS VL: DIQMTQSPSSLSASVGDRVTITCQASQGINNYLNWYQQKPGKAPKLLIYAASTLQRGVPSRFSGSGSGTDFTLTISSLQPEDFATYYCQQSYQTPLTFGGGTKVEIKR |
| no binding | binds | 2 to 10 fold | < 2 fold | Polypeptide No. 41 (scFv, V domains shown, scFv) VH: QVQLVQSGAEVKKPGASVKVSCKASGYTFPNYGISWVRQAPGQGLEWMGWINPNSGGTKYAQRFQGRVTMTRDTSTSTVYMELSSLRSEDTAVYYCARDRDILTGYYHFDYWGQGTLVTVSS VL: not shown |
| no binding | binds | 2 to 10 fold | < 2 fold | Polypeptide No. 27 (scFv, V domains shown, scFv) VH: QVQLVQSGAEVKKPGASVKVSCKASGYTLTGYYMHWVRQAPGQGLEWMGWMNPSSGNTGYAQQFQGRVTMTRDTSTSTVYMELSSLRSEDTAVYYCARASSDRYYYDGVWYFDLWGRGTLVTVSS VL: DIQMTQSPSSLSASVGDRVTITCRASQDIRNNLGWYQQKPGKAPKLLIYGASSLQSGVPSRFSGSGSGTDFTLTISSLQPEDFATYYCQQTYSSPPTFGQGTKLEIKR |
| no binding | binds | 10 to 30 fold | < 2 fold | Polypeptide No. 31 (scFv, V domains shown, scFv) VH: QVQLVQSGAEVKKPGSSVKVSCKASGGTFSTYAITWVRQAPGQGLEWMGGIIPIVGRANYAQKFQGRVTITADESTSTAYMELSSLRSEDTAVYYCARSGGHDLDYWGQGTLVTVSS VL: DIQMTQSPSSLSASVGDRVTITCRASQGIGNDLGWYQQKPGKAPKLLIYGASSVQSGVPSRFSGSGSGTDFTLTISSLQPEDFATYYCQQSYSTPITFGQGTRLEIKR |
| no binding | binds | 10 to 30 fold | < 2 fold | Polypeptide No. 42 (scFv, V domains shown, scFv) VH: QVQLVQSGAEVKKPGASVKVSCKASGYTFTDYFMHWVRQAPGQGLEWMGWINPNSGNTGYAQKFQGRVTMTRDTSTSTVYMELSSLRSEDTAVYYCARLNDYGDYGGPATLDYWGQGTLVTVSS VL: DIQMTQSPSSLSASVGDRVTITCRASQGISNNLNWYQQKPGKAPKLLIYAASSLQSGVPSRFSGSGSGTDFTLTISSLQPEDFATYYCQQSYSTPPTFGQGTKLEIKR |
| no binding | binds | 2 to 10 fold | < 2 fold | Polypeptide No. 35 (scFv, V domains shown, scFv) VH: QVQLVQSGAEVKKPGASVKVSCKASGYTFTDYYMHWVRQAPGQGLEWMGIINPSGGSTRYAQKFQGRVTMTRDTSTSTVYMELSSLRSEDTAVYYCARVDGRRWLRSDYWGQGTLVTVSS VL: DIQMTQSPSSLSASVGDRVTITCRASQGIRNDLAWYQQKPGKAPKLLIYAASTLQNGVPSRFSGSGSGTDFTLTISSLQPEDFATYYCQQSYSTPWTFGQGTKVEIKR |
| no binding | binds | 10 to 30 fold | < 2 fold | Polypeptide No. 32 (scFv, V domains shown, scFv) VH: EVQLLESGGGLVQPGGSLRLSCAASGFTFSSYGMHWVRQAPGKGLEWVSSISGSGDTTYYADSVKGRFTISRDNSKNTLYLQMNSLRAEDTAVYYCARDNPYGDYGGSFDYWGQGTLVTVSS VL: EIVMTQSPATLSVSPGERATLSCRASQSVSSSYLAWYQQKPGQAPRLLIYATSTRATGIPARFSGSGSGTEFTLTISSLQSEDFAVYYCQQYGSLPLTFGQGTKVEIKR |
| no binding | binds | 10 to 30 fold | < 2 fold | Polypeptide No. 40 (scFv, V domains shown, scFv) VH: QVQLVQSGAEVKKPGASVKVSCKASGYTFTDYHMHWVRQAPGQGLEWMGWMSPNSGNTGYAQNFQGRVTMTRDTSTSTVYMELSSLRSEDTAVYYCARADYYGSDYVKFDYWGQGTLVTVSS VL: DIQMTQSPSSLSASVGDRVTITCRVSQGISSYLNWYQQKPGKAPKLLIYEASTLESGVPSRFSGSGSGTDFTLTISSLQPEDFATYYCQQGYSTPPTFGQGTKVEIKR |
| no binding | binds | 2 to 10 fold | < 2 fold | Polypeptide No. 29 (scFv, V domains shown, scFv) VH: QVQLVQSGAEVKKPGASVKVSCKASGYTFTGYYLHWVRQAPGQGLEWMGVINVRRGSTRYAQNFQGRVTMTRDTSTSTVYMELSSLRSEDTAVYYCARVSGSYYQPWGQGTLVTVSS VL: DIQMTQSPSSLSASVGDRVTITCRASQSISRWLAWYQQKPGKAPKLLIYDASNLETGVPSRFSGSGSGTDFTLTISSLQPEDFATYYCQQGNSFPPIFGGGTKVEIKR |
| no binding | binds | 10 to 30 fold | < 2 fold | Polypeptide No. 39 (scFv, V domains shown, scFv) VH: EVQLLESGGGLVQPGGSLRLSCAASGFTFRNYGMGWVRQAPGKGLEWVSAISGSGGSTYYADSVKGRFTISRDNSKNTLYLQMNSLRAEDTAVYYCARVKFYGMDVWGQGTTVTVSS VL: DIQMTQSPSSLSASVGDRVTITCRASQGISNDLAWYQQKPGKAPKLLIYGASNLETGVPSRFSGSGSGTDFTLTISSLQPEDFATYYCQQANSFPFTFGPGTKVDIKR |
| no binding | binds | > 30 fold | < 2 fold | Polypeptide No. 33 (scFv, V domains shown, scFv) VH: QVQLVQSGAEVKKPGASVKVSCKASGYTFTSYYMHWVRQAPGQGLEWMGIIDPSGGSTNYAQKFQGRVTMTRDTSTSTVYMELSSLRSEDTAVYYCARDYYGSGSYYGLDYWGRGTLVTVSS VL: DIQMTQSPSSLSASVGDRVTITCRASQGISNNLNWYQQKPGKAPKLLIYDASNLETGVPSRFSGSGSGTDFTLTISSLQPEDFATYYCQQANSFPLTFGPGTKVDIKR |
